Sequences and labels used below:
B1: SC03-023 (scFv)
scFv: AMAQVQLQQWGAGLLKPSETLSLTCAVYGGSFSGFYWSWIRQPPGKGLEWIGEINHSGSTNYNPSLKSRVTISVDTSKNQFSLKLSSVTAADTAVYYCARRVEVVEYQLLRPRYKSWFDPWGQGTLVTVSSGTGGSGGTGSGTGGSTQSALTQPRSVSGSPGQSVTISCTGSSSTVGGYNYVSWYQQHPGKAPKLMIYDVSKRPSGVSNRFSGSKSGNTASLTISGLQAEDEADYYCSSYTSSSTYVFGTGTKVTVLGAA
B2: SC03-020 (scFv)
scFv: AMAEVQLVQSGSEVKKPGESLKISCKGSGYGFITYWIGWVRQMPGKGLEWMGIIYPGDSETRYSPSFQGQVTISADKSINTAYLQWSSLKASDTAIYYCAGGSGISTPMDVWGQGTTVTVSSGTGGSGGTGSGTGGSTDIQMTQSPDSLAVSLGERATINCKSSQKILHSSNNKNYLAWYQQKPGQPPKLLIYWASTRESGVPDRFSGSGSGTDFTLTISSLQAEDVAVYYCQQYYSTPPVFGGGTKVEIKRAA
B3: SC03-021 (scFv)
scFv: AMAQVQLVQSGTEVKKPGESLKISCKGSGYGFITYWIGWVRQMPGKGLEWMGIIYPGDSETRYSPSFQGQVTISADKSINTAYLQWSSLKASDTAIYYCAGGSGISTPMDVWGQGTTVTVSSGTGGSGGTGSGTGGSTDVVMTQSPDSLAVSLGERATINCKSSQSVLHSSNNKNYLAWYQQKPGQPPKLLIYWASTRQSGVPDRFSGSGSGTDFTLTISSLQAEDVAVYYCQQYYSTPPTFGQGTKVEIKRAA
B4: SC03-024 (scFv)
scFv: AMAQVQLVESGSELKIPGASVKVSCKATGYTFTRYSLNWVRQAPGQGLEWVGWINTQTGNSNYGQAFSGRFVFSLDTSVSTAYLQISSLQAEDTATYYCARKSAGSNAFDIWGQGTMVTVSSGTGGSGGTGSGTGGSTQSVVTQPPSVSAAPGQKATISCSGSSSNIGNNYVSWYQQLPGTAPKLLIYDNNKRPSGIPNRFSGSKSGTSATLGITGLQTGDEADYYCGTWDSSLSAYVFGTGTKVTVLGAA
B5: SC03-034 (scFv)
scFv: AMAEVQLVQSGAEVKKPGESLKISCKGSGYGFITYWIGWVRQMPGKGLEWMGIIYPGDSETRYSPSFQGQVTISADKSINTAYLQWSSLKASDTAIYYCAGGSGISTPMDVWGQGTTVTVSSGTGGSGGTGSGTGGSTDVVMTQSPDSLAVSLGERATINCKSSQSILNRSNNKNYLAWYQQKPGQPPKLLIYWASTRESGVPDRFSGSGSGTDFNLTISSLQAEDVAVYYCQQYNNWPLTFGGGTKVDIKRAA
B6: SC03-043 (scFv)
scFv: AMAQVQLVQSGGGLVQPGGSLRLSCAASGFTFSSYAMHWVRQAPGKGLEYVSGISSNGGSTYYANSVKGRFTISRDNSKNTLYLQMGSLRAEDMAVYYCARTTNRAFDIWGQGTMVTVSSGTGGSGGTGSGTGGSTDIQLTQSPDSLAVSLGERATINCKSSQSVLYRSNNKNYLAWYQQKPGQPPKLLIYWASTRESGVSERFSGSGSGTDFTLTISSLQAEDVAVYYCQQYYSTPYSFGQGTKLEIKRAA
B7: SC03-046 (scFv)
scFv: AMAEVQLVQSGGGLVQPGGSLRLSCAASGFTFSSYAMHWVRQAPGKGLEYVSGISSNGGSTYYANSVKGRFTISRDNSKNTLYLQMGSLRAEDMAVYYCARTTNRAFDIWGQGTMVTVSSGTGGSGGTGSGTGGSTDVVMTQSPDSLAVSLGERATINCKSSQSVLYSSNNKNYLAWYQQKPGQPPKLLIYWASTRESGVPDRFSGSGSGTDFSLTISSLQAEDVAVYYCQQYYSPPYTFGPGTKVEIKRAA
B8: SC03-036 (scFv)
scFv: AMAEVQLVQSGTEVKKPGESLKISCKGSGYGFITYWIGWVRQMPGKGLEWMGIIYPGDSETRYSPSFQGQVTISADKSINTAYLQWSSLKASDTAIYYCAGGSGISTPMDVWGQGTTVTVSSGTGGSGGTGSGTGGSTDIQMTQSPDSLAVSLGERATINCKSSQSVLHSPNNKNYLAWYQQKPGQPPKLLIYWASTRESGVPDRFSGSGSGTDFTLTISSLQAEDVAVYYCQQYYSTNSFGQGTKLEIKRAA
B9: SC03-039 (scFv)
scFv: AMAEVQLVESGGGLVQPGGSLRLSCAASGFTFSSYAMSWVRQAPGKGLEWVSVIYSGGTSTYYADSVKGRFTISRDNSKNTLYLQMNSLRAEDTAVYFCAKGSKWNDVGGGDYWGQGTLVTVSSGTGGSGGTGSGTGGSTNFMLTQPHSVSESPGKTVTISCAGSSGSIASNYVQWYQQRPGSAPTTVIYEDNQRPSGVPDRFSGSIDSSSNSASLTISGLKTEDEADYYCQSYDGYLWIFGGGTKLTVLGAA
B10: SC03-055 (scFv)
scFv: AMAQVQLQQWGAGLLKPSETLSLTCAVYGGSFSGFYWSWIRQPPGKGLEWIGEINHSGSTNYNPSLKSRVTISADTSKNQFSLKLSSVTAADTAVYYCARRVEVVEYQLLRPRYKSWFDPWGQGTLVTVSSGTGGSGGTGSGTGGSTQSVLTQPPSVSGAPGQRVSISCSGSGANGGTDPVSWYQKFPGTAPHLLIYDNNKRPSGIPDRFSGSKSGASATLDITGLQTGDEADYYCGAWDPSLSGYVFGTGTQLTVLSAA
B11: SC03-051 (scFv)
scFv: AMAQVQLVQSGTEVKKPGESLKISCKGSGYGFITYWIGWVRQMPGKGLEWMGIIYPGDSETRYSPSFQGQVTISADKSINTAYLQWSSLKASDTAIYYCAGGSGISTPMDVWGQGTTVTVSSGTGGSGGTGSGTGGSTDIQMTQSPDSLAVSLGERATINCKSGQSILYSSNDKNYLAWYQQKPGQPPKLLIYWASTRESGVPDRFSGSGSGTDFTLTISSLQAEDVAVYYCQQYYSTPYTFGQGTKVEIKRAA
B12: SC03-057 (scFv)
scFv: AMAQVQLVQSGAEVKKPGSSVKVSCKASGGTFSRYAISWVRQAPGQGLEWMGRINPILNLTNYAQKFQGRVTITADKSTSTAYMEMSSLRSEDTAIYYCASPDIVVAGHASPPHYTMDVWGQGTTVTVSSGTGGSGGTGSGTGGSTDIQMTQSPSSLSASVGDRVTITCRASQGIRNDLGWYQQKPGKAPNLLIYQASALQSGVPSRFSGSESGAEFTLTISSLHPDDFATYYCQQYHDFPITFGQGTRLEIKRAA
B13: SC03-033 (scFv)
scFv: AMAQVQLVQSGTEVKKPGESLKISCKGSGYGFITYWIGWVRQMPGKGLEWMGIIYPGDSETRYSPSFQGQVTISADKSINTAYLQWSSLKASDTAIYYCAGGSGISTPMDVWGQGTTVTVSSGTGGSGGTGSGTGGSTDVVMTQSPDSLAVSLGERATINCKTSHNIFSRSNNKDYLAWYQQKPGQPPRLLIYWASTRASGVPERFSGSGSGTDFSLTISSLQAEDVAVYYCQQYYSSPMYSFGQGTKVEIKRAA
B14: SC03-031 (scFv)
scFv: AMAQVQLVQSGADVKKPGSSVKVSCEASGGTFSSYAISWVRQAPGQGLEWMGRIIPILGITNYAQKFQGRVTITADKSTGTGNMELSSLRSEDTAVYYCARESGGGYDNHFDYWGQGTLVTVSSGTGGSGGTGSGTGGSTQSVLTQPPSASGTPGQRVTISCSGGSSNIGSNTVNWYQQLPGTAPKLVIYANNQRPSGVPDRFSASKSGTSASLAISGLQSEDEADYYCAAWDDSLTGGVFGGGTQLTVLSAA
B15: SC03-044 (scFv)
scFv: AMAEVQLVETGGGLVQPGGSLRLSCAASGFTFSSYAMHWVRQAPGKGLEYVSGISSNGGSTYYANSVKGRFTISRDNSKNTLYLQMGSLRAEDMAVYYCARTTNRAFDIWGQGTMVTVSSGTGGSGGTGSGTGGSTDIQMTQSPDSLAVSLGERATINCKSSQSVLYSSNNKNYLAWYQQKPGQPPKLLIYWASTRESGVPDRFRGSGSGTDFTLTISSLQAEDLAVYYCQQYYSTPYSFGQGTKLEIKRAA
B16: SC03-040 (scFv)
scFv: AMAQVQLVQSGGGLVQPGGSLRLSCAASGFTFSSYAMHWVRQAPGKGLEYVSGISSNGGSTYYANSVKGRFTISRDNSKNTLYLQMGSLRAEDMAVYYCARTTNRAFDIWGQGTMVTVSSGTGGSGGTGSGTGGSTDIQMTQSPDSLAVSLGERATINCRSSQSVLYSSNNKNYLAWYQQKPGQPPKLLIYWASTRESGVPDRFSGSGSGTDFTLTISSLQAEDVAVYYCQQYYSSPYSFGQGTKLEIKRAA
B17: SC03-054 (scFv)
scFv: AMAEVQLVQSGGGVVQPGRSLRLSCAASGFTFSSYAMHWVRQAPGKGLEYVSGISSNGGSTYYANSVKGRFTISRDNSKNTLYLQMGSLRAEDMAVYYCARTTNRAFDIWGQGTMVTVSSGTGGSGGTGSGTGGSTDIQLTQSPDSLAVSLGERATINCKSSQSVLYSSNNKNYLAWYQQKPGQPPKLLIYWASTRESGVPDRFSGGGSGTDFTLTISSLQAEDVAVYYCQQYYSTPYSFGQGTKVEIKRAA
B18: SC03-037 (scFv)
scFv: AMAKVQLVQSGGGLIQPGGSLRLSCAASGFTVSSNYMSWVRQAPGKGLEWVSIVFSGGSTYYADSVKGRFTISRDNSKNTLYLQMNSLRAEDTAVYYCARDAHRGFGMDVWGQGTTVTVSSGTGGSGGTGSGTGGSTSSELTQDPAVSVALGQTVRITCQGDSLRSYYASWYQQKPGQAPVLVIYGKNNRPSGIPDRFSGSSSGNTASLTITGAQAEDEADYYCNGRDSSGNHWVFGGGTKLTVLGAA
B19: SC03-038 (scFv)
scFv: AMAEVQLVQSGGGLIQPGGSLRLSCAASGFTVSSNYMSWVRQAPGKGLEWVSIVFSGGSTYYADSVKGRFTISRDNSKNTLYLQMNSLRAEDTAVYYCARDAHRGFGMDVWGQGTTVTVSSGTGGSGGTGSGTGGSTSSELTQDPAVSVALGQTVRITCQGDSLRSYYASWYQQKPGQAPVLVIYGKNNRPSGIPDRFSGSSSGDTASLTITGAQAEDEADYYCNSRDSSGNHWVFGGGTKLTVLGAA

The target in the first experiment is SARS-CoV preparation (Frankfurt 1 strain). In words: phage ELISA on coated SARS-CoV preparation, plate 2 (no phage antibody 0.211).
In the case of B1, the OD492 nm was determined as 1.31 OD492 nm. The same measure, in the same setting: as for B2, the figure is 0.671 OD492 nm; as for B3, 0.215 OD492 nm; as for B4, 0.235 OD492 nm.

A further experiment has the same target. In words: phage ELISA on coated SARS-CoV preparation, plate 3 (no phage antibody 0.054).
B5: the OD492 nm was 0.802 OD492 nm. On the same count and under the same terms, as for B6, the figure is 1.27 OD492 nm; as for B7, 1.9 OD492 nm; as for B8, 0.24 OD492 nm. On the same count and under the same terms, under B9 stands 0.851 OD492 nm.

Molecule B10 registered an OD492 nm of 0.608 OD492 nm. On the same count and under the same terms, under B11 stands 0.602 OD492 nm; under B12, 1.19 OD492 nm.

The target is the same in the next experiment. In words: phage ELISA on coated SARS-CoV preparation, plate 4 (no phage antibody 0.051).
The molecule B13 returned an OD492 nm of 0.288 OD492 nm. In turn, B14 showed an OD492 nm of 0.635 OD492 nm.

Molecule B15 had an OD492 nm of 0.518 OD492 nm.

B16 came in with an OD492 nm of 0.616 OD492 nm.

B17 yielded an OD492 nm of 0.428 OD492 nm. On to B18, for which the OD492 nm was 0.287 OD492 nm.

As for B19, the OD492 nm is 0.314 OD492 nm.

Source of the values: patent US20060121580A1.
